According to patent US6030777:

How the values were obtained:
[1] = target: Salmonella typhimurium sigma^70, purified (Salmonella typhimurium) (UniProt P0A2E3)
[2] = target: E. coli sigma^70 (E. coli) (UniProt P00579)
[3] = target: E. coli core RNA polymerase (E. coli) (UniProt P0A7Z4)

Substance	RNA polymerase activity, [^3 H]UTP (nmol), after adding S. typhimurium sigma^70 to E. coli RNA polymerase inhibited by AsiA ([^3 H]UTP (nmol)) [1]	RNA polymerase activity, [^3 H]UTP (nmol), with sigma^70 preincubated with AsiA ([^3 H]UTP (nmol)) [1]	E. coli RNA polymerase assay (sigma^70 dependent transcription on T4 phage DNA) [2] [% inhibited]	RNA polymerase activity, [^3 H]UTP (nmol) ([^3 H]UTP (nmol)) [3]
AsiA protein (10 kDa anti-sigma^70 factor of bacteriophage T4), purified	3	0.98	> 80	
Salmonella typhimurium sigma^70, purified (from UniProt P0A2E3)				2.3
